Ends that are not written are not given here. * marks the point of attachment. Biotin = O=C1N[C@H]2[C@H](CS[C@H]2CCCCC(=O)*)N1

In PMC12084297, “Cytoplasmic connexin43-microtubule interactions promote glioblastoma stem-like cell maintenance and tumorigenicity” (Cell Death & Disease, 2025) one finds EC50 data, which are given here for one molecule.

The target of one assay is β-tubulin (human (endogenous in VTC-001 and …, UniProt P07437 1-444)). Kind of assay: cellular thermal shift assay (CETSA); fresh VTC-037 GSC lysates in non-denaturing buffer treated 1 h with 3-fold dilutions (222.2, 74.0, 24.7, 8.2 and 2.7 nM) of peptide, heat challenge at 57 °C for 20 min, centrifugation, immunoblot of the stable protein normalised to DMSO control; EC50 of target engagement. The following applies: one partner purified.

For the next assay, the target named is α-tubulin (human (endogenous in VTC-037 GSCs), UniProt P68363 1-451). Described as above. As to conditions: one partner purified.
Sequence of α-tubulin (P68363 whole entry): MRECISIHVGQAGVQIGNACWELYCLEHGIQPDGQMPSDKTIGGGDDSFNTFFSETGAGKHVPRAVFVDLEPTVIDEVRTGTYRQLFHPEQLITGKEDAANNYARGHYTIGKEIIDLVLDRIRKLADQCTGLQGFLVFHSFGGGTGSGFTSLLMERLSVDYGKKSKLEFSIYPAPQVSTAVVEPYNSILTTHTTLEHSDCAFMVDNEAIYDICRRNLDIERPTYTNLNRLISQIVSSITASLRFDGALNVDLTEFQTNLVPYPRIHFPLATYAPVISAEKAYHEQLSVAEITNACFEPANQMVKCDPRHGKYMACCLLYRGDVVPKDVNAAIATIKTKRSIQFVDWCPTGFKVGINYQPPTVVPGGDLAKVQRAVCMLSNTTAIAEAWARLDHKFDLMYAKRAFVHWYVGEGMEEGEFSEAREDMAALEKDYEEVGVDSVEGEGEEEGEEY

Sequence of β-tubulin (human (P07437 whole entry): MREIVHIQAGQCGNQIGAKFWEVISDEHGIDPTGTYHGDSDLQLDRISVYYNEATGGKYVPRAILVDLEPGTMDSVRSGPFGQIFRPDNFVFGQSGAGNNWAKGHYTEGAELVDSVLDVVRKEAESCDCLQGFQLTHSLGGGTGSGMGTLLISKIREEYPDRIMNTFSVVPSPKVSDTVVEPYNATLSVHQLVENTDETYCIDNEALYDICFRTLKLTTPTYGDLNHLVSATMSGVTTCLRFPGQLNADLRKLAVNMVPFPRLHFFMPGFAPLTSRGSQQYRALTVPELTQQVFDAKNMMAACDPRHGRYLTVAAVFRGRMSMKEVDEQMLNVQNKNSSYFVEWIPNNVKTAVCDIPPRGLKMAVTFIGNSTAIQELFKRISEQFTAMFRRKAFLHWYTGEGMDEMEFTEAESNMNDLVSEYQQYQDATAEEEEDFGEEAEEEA

In the case of Biotin-RQPKIWFPNRRKPWKKGSDVFKRKFVDRKVG [JM2-scrambled peptide], the EC50 with β-tubulin and with α-tubulin was over 200 nM throughout.
